Patent CN110616192A

Experiments:
神经丝轻链(NEFL) (human) [1] = target: 神经丝轻链(NEFL) (human) (UniProt P07196); experiment: indirect ELISA titre, serial two-fold dilution of purified antibody
神经丝轻链(NEFL) (human) [2] = target: 神经丝轻链(NEFL) (human) (UniProt P07196); experiment: indirect ELISA, antigen coated at 5 μg/ml, antibody diluted 10^4-fold
神经丝轻链(NEFL) (human) [3] = target: 神经丝轻链(NEFL) (human) (UniProt P07196); experiment: calculated from the indirect ELISA titre

Chain of UniProt P07196 (P07196 1-360 limits assumed): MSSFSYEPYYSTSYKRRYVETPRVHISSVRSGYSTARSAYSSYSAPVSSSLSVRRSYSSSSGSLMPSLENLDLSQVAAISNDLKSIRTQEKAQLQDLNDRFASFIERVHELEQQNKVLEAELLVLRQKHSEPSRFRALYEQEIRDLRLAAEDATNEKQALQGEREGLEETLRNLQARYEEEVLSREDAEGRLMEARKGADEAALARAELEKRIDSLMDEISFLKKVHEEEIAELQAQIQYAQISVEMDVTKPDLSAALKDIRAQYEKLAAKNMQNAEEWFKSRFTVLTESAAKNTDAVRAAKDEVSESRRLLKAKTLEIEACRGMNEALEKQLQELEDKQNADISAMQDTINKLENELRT

Substance	抗体效价 (神经丝轻链(NEFL) (human) [1])	OD450 (神经丝轻链(NEFL) (human) [2]) [OD450]	Ka (神经丝轻链(NEFL) (human) [3]) [M⁻¹]
抗NEFL单克隆抗体OTI2F5 (antibody)	1.02e+06	> 1.5	
抗人神经丝轻链(NEFL)单克隆抗体OTI11F6 (antibody)	1.02e+06	> 1.5	1.4e+09
抗NEFL单克隆抗体OTI3G2 (antibody)	512000	> 1.5	
抗NEFL单克隆抗体OTI11F8 (antibody)	512000	> 1.5	
